Here are results for three substances from patent publication US20250170285A1, “RADIOLABELLED OLIGONUCLEOTIDES AND PROCESS FOR THEIR PREPARATION” (Hoffmann-La Roche Inc., priority 2018, published 2025).

Series [1] is described as follows: Tissue exposure study: liver concentration of unlabeled LNAs by LC-MS/MS. The conditions noted are these: analyzed by LC-MS/MS, FIG. 1.
Experimental: (§1) Serial dilutions were made from stock solution (approx. 1 mg/mL in PCR grade water, the exact concentration of the stock solution will be quantified with the spectro-photometric device Nanodrop (Thermo Scientific) based on the extinction coefficient at 260 nm) to generate working solutions in water from approx. 100 ng/mL up to approx. 250000 ng/mL.
(§2) Calibration standards and quality control samples (freshly prepared in plasma, 50 μL) were treated for protein denaturation with 150 μL of 4 M guanidine thiocyanate after addition of the internal standard. After vigorously mixing (20 min at 1600 rpm), 200 μL of a water/hexafluoroisopropanol/diisopropylethylamine solution (100:4:0.2, v/v/v) were added, followed by mixing (15 min at 1500 rpm). Then a clean-up step was performed by means of solid-phase-extraction cartridges (Waters, OASIS HLB 5 mg, 30 μm) after elution and evaporation to dryness (30-45 min at +40° C.) the samples were reconstituted in 200 μL of mobile phase (water/methanol/hexafluoroisopropanol/diisopropylethylamine (95/5/1/0.2, v/v/v/v)). After vortex mixing (10 min at 1500 rpm), an aliquot (20 μL) was injected into a LC-MS/MS system (50 μL loop).
(§3) A Shimadzu 30ADXR pump was used, equipped with a Waters Acquity C18 column (50×2.1 mm) at 60° C. […]
For series [2] the following is noted: in vivo.
Experimental: as §1, §2, §3
Series [3] can be described thus: Single dose PK experiment: liver concentration of tritium labeled LNAs by LSC. The following applies: single dose 1 mg/kg; liver 24, 72 and 336 h after dosing; radioactivity by LSC, FIG. 2. It is filed as in vivo. On the procedure: A single dose PK experiment with Example 3.b ([^3H]-compound 2 based on conjugate 4) and Example 3.c ([^3H]-compound 3 based on conjugate 7) at 1 mg/kg was done. LNAs were analyzed in liver 24, 72 and 336 h after dosing. The study will confirm the feasibility of oligonucleotides with radioactive conjugation.
A Packard Tri-carb 3100TR was used for LSC analysis.
In FIG. 2 the liver concentration of the tritium labeled compounds of Example 3.b (dotted line) and Example 3.c (continuous line) have been analyzed by LSC.

Read-outs that look alike come from different tables or passages of the source.

As to “5′-G*A*G*t*t*a*c*t*t*g*c*c*a*A*C*T*-3′ (GAGTTACTTGCCAACT; all phosphorothioate, sugars by position and methylation of C not given here; further chemistry not fully specified) [LNA study compound A]”, the “liver concentration (liver uptake)” value in series [1] is reported as “lower level of uptake”.

Take “5′-GN2-C6-ca G*A*G*t*t*a*c*t*t*g*c*c*a*A*C*T*-3′ (CAGAGTTACTTGCCAACT; 5'-GalNAc2-C6 conjugate, LNA and phosphorothioate, case key not given here, further chemistry not given here) [GalNAc LNA study compound A]”: the “liver concentration (liver uptake)” value in series [2] was “high initial uptake in the liver plasma and a normal decrease over the time”.

Regarding “5′-GN2-C6-caG*A*G*t*t*a*c*t*t*g*c*c*a*A*C*T*-C6SH-[^3H]-NEM [Example 3.b]”, in series [3], the “liver concentration (liver uptake)” value is “equivalent liver uptake as a therapeutic GalNAc LNA”.
